Laboratory results as given in patent publication US20120230990A1 (MERCK SERONO, published 2012).

Columns and labels:
mouse IL-22RA-ECD [1] = target: T1, mouse IL-22RA-ECD (mouse, UniProt Q80XZ4 16-230); experiment: KinExA and Biacore, IL-22RA-ECD with 6 His tag
T1 construct: extracellular domain; Produced in HEK-293 cells and NiNTA-purified; not shown: 6 His tag
T1 sequence (looked up): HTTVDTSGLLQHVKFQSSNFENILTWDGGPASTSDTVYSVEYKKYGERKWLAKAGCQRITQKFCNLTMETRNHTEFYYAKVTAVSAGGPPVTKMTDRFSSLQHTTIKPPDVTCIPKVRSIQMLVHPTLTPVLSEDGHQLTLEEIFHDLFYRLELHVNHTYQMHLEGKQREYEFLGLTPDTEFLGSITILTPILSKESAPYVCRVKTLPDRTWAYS

dog IL-22RA-ECD = target: T2, dog IL-22RA-ECD (dog); experiment: Biacore, IL-22RA-ECD with 6 His tag
T2 construct: extracellular domain; Produced in HEK-293 cells and NiNTA-purified

mouse IL-22RA-ECD [2] = target: T1, mouse IL-22RA-ECD; experiment: Biacore, IL-22RA-ECD with 6 His tag
rat IL-22RA-ECD [3] = target: T3, rat IL-22RA-ECD (rat); experiment: Biacore, IL-22RA-ECD with 6 His tag
T3 construct: extracellular domain; Produced in HEK-293 cells and NiNTA-purified

[4] = target: T4, human IL-22RA-ECD (IL-22RA-Extra Cellular Domain) (human, UniProt Q8N6P7 16-228); experiment: Biacore, IL-22RA-ECD with 6 His tag
T4 construct: also called human IL-22RA extracellular domain; hIL-22RA coated on the plates; not shown: 6 His tag
T4 sequence: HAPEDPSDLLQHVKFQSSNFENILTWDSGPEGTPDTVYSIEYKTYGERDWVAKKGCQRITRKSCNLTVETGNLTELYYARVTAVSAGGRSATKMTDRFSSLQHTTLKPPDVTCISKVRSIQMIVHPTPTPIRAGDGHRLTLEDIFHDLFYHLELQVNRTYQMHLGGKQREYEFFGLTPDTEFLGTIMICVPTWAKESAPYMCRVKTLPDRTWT

[5] = target: T5, marmoset monkey IL-22RA-ECD (marmoset monkey); experiment: Biacore, IL-22RA-ECD with 6 His tag
T5 construct: extracellular domain; Produced in HEK-293 cells and NiNTA-purified

mouse IL-22RA-ECD [6] = target: T1, mouse IL-22RA-ECD; experiment: KinExA, IL-22RA-ECD with 6 His tag
[7] = target: T6, rhesus monkey IL-22RA-ECD (rhesus monkey); experiment: KinExA, IL-22RA-ECD with 6 His tag
T6 construct: extracellular domain; Produced in HEK-293 cells and NiNTA-purified

rat IL-22RA-ECD [8] = target: T3, rat IL-22RA-ECD; experiment: KinExA, IL-22RA-ECD with 6 His tag
[9] = target: T4, human IL-22RA-ECD (IL-22RA-Extra …); experiment: KinExA, IL-22RA-ECD with 6 His tag
[10] = target: T7, cynomolgus monkey IL-22RA-ECD (cynomolgus monkey); experiment: KinExA, IL-22RA-ECD with 6 His tag
T7 construct: extracellular domain; Produced in HEK-293 cells and NiNTA-purified

[11] = target: T5, marmoset monkey IL-22RA-ECD; experiment: KinExA, IL-22RA-ECD with 6 His tag

B1: 280.346.TSY (humanized anti-human IL-22RA antibody comprising 280.VH3-66-46 paired with 280.VK4-1-TSY, human IgG1/kappa) (antibody, V domains shown)
VH: EVQLVESGGGLVQPGGSLRLSCAASGYSITAEYMNWVRQAPGKGLEWIGEINPSTGTTTYNQKFKGRFTISVDQSKNTAYLQMNSLRAEDTAVYYCARFDAYFDYWGQGTLVTVSS
VL: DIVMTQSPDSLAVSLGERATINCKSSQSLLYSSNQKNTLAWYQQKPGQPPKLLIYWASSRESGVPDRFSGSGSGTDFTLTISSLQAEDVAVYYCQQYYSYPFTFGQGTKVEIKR
notes: Produced in CHO cells; also called 280.VH3-66-46/VK4-1-TSY; 280.VH3-66.46 paired with 280.IGKV4-1-TSY
With B1 the “fold lower affinity compared to human IL-22RA” value (mouse IL-22RA-ECD [1]) was roughly 100 fold, the Kd (dog IL-22RA-ECD) was 100 nM and the Kd (mouse IL-22RA-ECD [2]) was roughly 20 nM. For the same binder, the Kd (rat IL-22RA-ECD [3]) was roughly 1000 nM, the Kd [4] was roughly 0.15 nM and the Kd [5] was 0.4 nM. The Kd (mouse IL-22RA-ECD [6]) was roughly 4.85 nM, the Kd [7] was roughly 0.137 nM and the Kd (rat IL-22RA-ECD [8]) was roughly 587 nM. The Kd [9] was roughly 0.0285 nM, the Kd [10] was roughly 0.0645 nM and the Kd [11] was roughly 0.0385 nM.
